Experimental data from patent publication US20160238596.

Columns and labels:
[1] = molecular target: Indicator molecule containing the cleavable sequence GPQGIFGQ with a terminal biotin group connected via a polyethylene glycol spacer/linker (intact)
[2] = molecular target: T1, Cyclised HNE substrate lacking the tyrosine residue (CQESIRLPGC attached to the scaffold)
T1 chain: CQESIRLPGC

[3] = molecular target: T2, Cyclised MOL488 peptide (YCQESIRLPGC attached to the scaffold derived from 1,3-dibromomethylbenzene)
T2 chain: YCQESIRLPGC

B1: MMP 1 (Enzo) (protein)
chain: FVLTEGNPRWEQTHLTYRIENYTPDLPRADVDHAIEKAFQLWSNVTPLTFTKVSEGQADIMISFVRGDHRDNSPFDGPGGNLAHAFQPGPGIGGDAHFDEDERWTNNFREYNLHRVAAHELGHSLGLSHSTDIGALMYPSYTFSGDVQLAQDDIDGIQAIYGRSQNPVQP
Reader value (lateral flow, CF1522 gold) at 0.5 µg/ml MMP [1]: 478 reader units

B2: MMP 12 (Enzo) (protein)
chain: FREMPGGPVWRKHYITYRINNYTPDMNREDVDYAIRKAFQVWSNVTPLKFSKINTGMADILVVFARGAHGDFHAFDGKGGILAHAFGPGSGIGGDAHFDEDEFWTTHSGGTNLFLTAVHEIGHSLGLGHSSDPKAVMFPTYKYVDINTFRLSADDIRGIQSLYG
Reader value (lateral flow, CF1522 gold) at 0.5 µg/ml MMP [1]: 1250 reader units

B3: Human Neutrophil elastase (Leeblo Solutions inc.) (protein)
chain: IVGGRRARPHAWPFMVSLQLRGGHFCGATLIAPNFVMSAAHCVANVNVRAVRVVLGAHNLSRREPTRQVFAVQRIFENGYDPVNLLNDIVILQLNGSATINANVQVAQLPAQGRRLGNGVQCLAMGWGLLGRNRGIASVLQELNVTVVTSLCRRSNVCTLVRGRQAGVCFGDSGSPLVCNGLIHGIASFVRGGCASGLYPDAFAPVAQFVNWIDSIIQ
HPLC analysis of elastase digestion [2]: a single cleavage product results from HNE activity on the peptide
mass spectrometry of substrate and hydrolysed product [2]: the substrate is cleaved at a single site and that the substrate otherwise remains intact
preparative enzymatic cleavage followed by HPLC and mass spectrometry [3]: A new product peak evolved over time

B4: MMP 7 (Enzo) (protein)
chain: YSLFPNSPKWTSKVVTYRIVSYTRDLPHITVDRLVSKALNMWGKEIPLHFRKVVWGTADIMIGFARGAHGDSYPFDGPGNTLAHAFAPGTGLGGDAHFDEDERWTDGSSLGINFLYAATHELGHSLGMGHSSDPNAVMYPTYGNGDPQNFKLSQDDIKGIQKLYGKRSNSRKK
Reader value (lateral flow, CF1522 gold) at 0.5 µg/ml MMP [1]: 373 reader units

B5: MMP 11 (Enzo) (protein)
chain: FVLSGGRWEKTDLTYRILRFPWQLVQEQVRQTMAEALKVWSDVTPLTFTEVHEGRADIMIDFARYWHGDDLPFDGPGGILAHAFFPKTHREGDVHFDYDETWTIGDDQGTDLLQVAAHEFGHVLGLQHTTAAKALMSAFYTFRYPLSLSPDDCRGVQHLYGQPWPTVTSRTPA
Reader value (lateral flow, CF1522 gold) at 0.5 µg/ml MMP [1]: 280 reader units
